The values that follow come from the nanobody polyreactivity screen of Harvey et al. (2022).

This series is described as follows: yeast display, Sf9 membrane polyspecificity reagent, FACS + sequencing; frameworks hold sequencing errors. Summed up: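 Nanobodies from a synthetic yeast display library (Saccharomyces cerevisiae BJ5465), induced 36–48 hours with galactose, were stained 1 hour at 4 °C with 10% biotinylated, detergent-solubilized Sf9 membrane reagent, enriched on streptavidin microbeads, then FACS-sorted. Anti-HA (expression) and streptavidin (reagent binding) fluorescence set low and high (top ~1%) gates. Polyreactivity labels come from the gate of origin. Genes were colony-PCR amplified, MiSeq 2 × 250 sequenced and filtered by CDR length.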
As to “QVQLVESGGGLVQAGGSLRLSCAASGSIFFYYAMGWYRQAPGKERELVAAITSSGDSTYYADSVKGRFTISRDNAKNTVYLQMNSLKPEDTAVYYCAALYIGYTGYYYWGQGTQVSVSS”, the “polyreactivity (PSR sort gate)” value is reported as “low polyreactivity”.

“QVQLVESGGGLVQAGGSLRLSCAASGSIFFYYAMGWYRQAPGKERELVATINWSGGSTYYADSVKGRFTISRDNAKNTVYLQMNSLKPEDTAVYYCAAKDITLPGTMDSWGQGTQVTVSS”: the “polyreactivity (PSR sort gate)” value is on record as “low polyreactivity”.

With “QVQLVESGGGLVQAGGSLRLSCAASGSIFFYYTMGWYRQAPGKERELVAAISDSGGSTYYADSVKGRFTISRDNAKNTVYLQMNSLKPEDTAVYYCAAADWFTVLESERVDYWGQGTQVTVSS”, the “polyreactivity (PSR sort gate)” value is given as “low polyreactivity”.

Take “QVQLVESGGGLVQAGGSLRLSCAASGSIFFYYVMGWYRQAPGKERELVAVISSGGGSTYYADSVKGRFTISRDNAKNTVYLQMNSLKPEDTAVYYCAAGTYYKFYYWGQGTQVTVSS”: the “polyreactivity (PSR sort gate)” value is “high polyreactivity”.

With “QVQLVESGGGLVQAGGSLRLSCAASGSIFGANAMGWYRQAPGKERELVAAISTRGGRTYYADSVKGRFTISRDNAKNTVYLQMNSLKPEDTAVYYCATSGGRPYKYEYWGQGTQVTVSS”, the “polyreactivity (PSR sort gate)” value is on record as “high polyreactivity”.

For the sequence “QVQLVESGGGLVQAGGSLRLSCAASGSIFGAYAMGWYRQAPGKERELVAAISGSGTSTYYADSVKGRFTISRDNAKNTVYLQMNSLKPEDTAVYYCAADGTYFYLYLGDRFDYWGQGTQVTVSS”, the “polyreactivity (PSR sort gate)” value is “low polyreactivity”.

As for “QVQLVESGGGLVQAGGSLRLSCAASGSIFGAYAMGWYRQAPGKERELVASITGNGGSTYYADSVKGRFTISRDNAKNTVYLQMNSLKPEDTAVYDCAADDYSTRYRWFYYGSPYYYWGQGTQVTVSS”, the “polyreactivity (PSR sort gate)” value is “high polyreactivity”.

As for “QVQLVESGGGLVQAGGSLRLSCAASGSIFGAYAMGWYRQAPGKERELVATITLRDGSTYYADSVKGRFTISRDNAKNTVYLQMNSLKPEDTAVYYCATYYSAINYGWSNTILYDYWGQGTQVTVSS”, the “polyreactivity (PSR sort gate)” value is recorded as “low polyreactivity”.

On to “QVQLVESGGGLVQAGGSLRLSCAASGSIFGAYAMGWYRQAPGKETELVASITGNGGSTYYADSVKGRFTISRDNAKNTVYLQMNSLKPEDTAVYYCAADDYSTRYRWFYYGSPYYYWGQGTQVTVSS”, for which the “polyreactivity (PSR sort gate)” value is “high polyreactivity”.

With “QVQLVESGGGLVQAGGSLRLSCAASGSIFGAYAMGWYRQAPGKEWELVAAISWRDGSTYYADSVKGRFTISRDNAKNTVYLQMNCLKPEDTAVYYCAAEYVYIFYDSYYWGQGTQVTVSS”, the “polyreactivity (PSR sort gate)” value was “high polyreactivity”.

Turning to “QVQLVESGGGLVQAGGSLRLSCAASGSIFGDNAMGWYRQAPGKERELVAAISIVGSTSYADSVKGRFTISRDNAKNTVYLPMNSLKPEDTAVYYCAAETVRSDTGFDYWGQGTQVTVSS”, the “polyreactivity (PSR sort gate)” value is given as “low polyreactivity”.

As to “QVQLVESGGGLVQAGGSLRLSCAASGSIFGDNAMGWYRQAPGKERELVARISSGGNTYYADSVKGRFTISRDNAKNTVYLQMNSLKPEDTAVYYCAAAIKVSYKKFPYYYWGQGTQVTVSS”, the “polyreactivity (PSR sort gate)” value is given as “high polyreactivity”.

Take “QVQLVESGGGLVQAGGSLRLSCAASGSIFGDNAMGWYRQAPGKERELVASITWSGGSTFYADSVKGRFTISRDNAKNTVYLQMNSLKPEDTAVYYCNADYAESPYFYLLLDYWGQGTQVTVSS”: the “polyreactivity (PSR sort gate)” value is reported as “low polyreactivity”.

Regarding “QVQLVESGGGLVQAGGSLRLSCAASGSIFGDNTMGWYRQAPGKERELVAAISWRGGSTYYADSVKGRFTISRDNAKNTVYLQMNSLKPEDTAVYYCIGGPGGYDYWGQGTQVTVSS”, the “polyreactivity (PSR sort gate)” value is reported as “low polyreactivity”.

Regarding “QVQLVESGGGLVQAGGSLRLSCAASGSIFGDNTRGWYRQAPGKERELVAAISWRGGSTYYADSVKGRFTISRDNSKNTVYLQMNSLKPEDTAVYYCIGGPGGYDYWGQGTQVTVSS”, the “polyreactivity (PSR sort gate)” value is “low polyreactivity”.

As to “QVQLVESGGGLVQAGGSLRLSCAASGSIFGDYAMGWYRQAPGKERELVAAITWSGGSTTYADSVKGRFTISRDNAKNTVYLQMNSLKPEDTAVYCCAVYGWRFYSYDDYFDFNYWGQGTQVTVSS”, the “polyreactivity (PSR sort gate)” value was “low polyreactivity”.

“QVQLVESGGGLVQAGGSLRLSCAASGSIFGDYARGWYRQAPGKERELVAAISRSGGSTSYADSVKGRFTISRDNAKNTVYLQMNSLKPEDSAVYYCAAYWQRFGYDYWGQGTQVSVSS”: the “polyreactivity (PSR sort gate)” value is given as “low polyreactivity”.

For the sequence “QVQLVESGGGLVQAGGSLRLSCAASGSIFGENAMGGYRQAPGKERELVAAITSGGSTDYADSVKGRFTISRDNAKNTVYLQMNSLKPEDTAVYYCAASGRVGPGYWYDSWGQGTQVTVSS”, the “polyreactivity (PSR sort gate)” value is given as “low polyreactivity”.

Take “QVQLVESGGGLVQAGGSLRLSCAASGSIFGFNAMGWYRQAPGKEREFVAVISNRGGSTYYADSVKGRFTISRDNAKNTVYLQMNSLKPEDTAVYYCAARPYRDSGYWGQGTQVTVSS”: the “polyreactivity (PSR sort gate)” value was “high polyreactivity”.

On to “QVQLVESGGGLVQAGGSLRLSCAASGSIFGFNAMGWYRQAPGKERELVAAITNSGVRTYYADSVKGRFTISRDNAKNTVYLQMNSLKPEDTAVYYCAAEPDTYWYTYDYWGQGTQVTVSS”, for which the “polyreactivity (PSR sort gate)” value was “low polyreactivity”.

Take “QVQLVESGGGLVQAGGSLRLSCAASGSIFGFYAMGWYRQAPGKEREFVASISDSSGSTYYADSVKGRFTISRDNAKNTVYLQMNSLKPEDTAVYYCNARVNYRWPYSWRYYWGQGTQVTVSS”: the “polyreactivity (PSR sort gate)” value is reported as “high polyreactivity”.

In the case of “QVQLVESGGGLVQAGGSLRLSCAASGSIFGFYAMGWYRQAPGKERELVASINWSGGSTYYADSVKGRFTISRDNAKNTVYLQMNSLKPEDTAVYYCNADQYHWYDYWGQGTQVTVSS”, the “polyreactivity (PSR sort gate)” value is reported as “low polyreactivity”.

Regarding “QVQLVESGGGLVQAGGSLRLSCAASGSIFGGDGMGWYRQAPGKERQLVAAITSGSSTYYADSVKGRFTISRDNAKNTVYLQLNILKPEDTAVYYCAARPYPHSAYEGDYWGRGTQVTVSS”, the “polyreactivity (PSR sort gate)” value was “low polyreactivity”.

As for “QVQLVESGGGLVQAGGSLRLSCAASGSIFGGYAMGWSRQAPGNERELVASISISGGSTYYADSVKGRFTISRDNAKNTVYLQMNRLKPEDTAGYYCATDRTTTLNSPYGDPDRDDYWGQGTQVTVSS”, the “polyreactivity (PSR sort gate)” value is “low polyreactivity”.

As for “QVQLVESGGGLVQAGGSLRLSCAASGSIFGGYAMGWYRQAPGKERELVAAISSGGSTYYADSVKGRFTISRDNAKNTVYLQMNSLKPEDTAVYYCNADRGNWWDYGRAYGYDYWGQGTQVTVSS”, the “polyreactivity (PSR sort gate)” value is on record as “low polyreactivity”.

In the case of “QVQLVESGGGLVQAGGSLRLSCAASGSIFGGYGMGSYRQAPGKERELVAAITSGSSTYYADSVKGRFTISRDNAKNTVYLQMNSLKPEDTAVYYCAARPYPHSAYEGDYWGRGTQVTVSS”, the “polyreactivity (PSR sort gate)” value is on record as “low polyreactivity”.

Take “QVQLVESGGGLVQAGGSLRLSCAASGSIFGGYGMGWYRQAPGKERELVAVITKRGGSTYYADSVKGRFTISRDNAKNTVYLQMNSLKPEDTAVYYCNADYRRYPEFDYWGQGTQVTVSS”: the “polyreactivity (PSR sort gate)” value is “high polyreactivity”.

For the sequence “QVQLVESGGGLVQAGGSLRLSCAASGSIFGGYTMGWYRQAPGKERELVAAISARGGNTYYADSVKGRFTISRDNAKNTVYLQMNSLKPEDTSVYYCAKVRYTQSYRGYGFWGQGTQVTVSS”, the “polyreactivity (PSR sort gate)” value was “high polyreactivity”.

For the sequence “QVQLVESGGGLVQAGGSLRLSCAASGSIFGGYVMGWSRQAPGKEWELVAAITSGGSTYYADSVKGRFTISRDNAKNTVYLQMNSLKPEDTAVYYCNADPYTYSYGMYYWGQGTQVTVSS”, the “polyreactivity (PSR sort gate)” value is “low polyreactivity”.

Turning to “QVQLVESGGGLVQAGGSLRLSCAASGSIFGGYVMGWYRQAPGKERELVAAITSGGSTYYADSVKGRFTISRDNAKNTVYLQMNSLKPEDTAVYYCNADPYTYSYGMYYWGHGTQVTVSS”, the “polyreactivity (PSR sort gate)” value was “low polyreactivity”.

Regarding “QVQLVESGGGLVQAGGSLRLSCAASGSIFGINAMGWYRQAPGKERELVAAISGSTSRTYYADSVKGRFTISRDTAKNTVYLQMNSLKPEDTAVYYCARVKGVYHFSILDYWGQGTQVTVSS”, the “polyreactivity (PSR sort gate)” value is recorded as “high polyreactivity”.

“QVQLVESGGGLVQAGGSLRLSCAASGSIFGIYAMGWYRQAPGKERELVAAIRVSDGRTYYADSVKGRFTISRDNAKNTVYLQMNSLKPEDTAVYYCAAESQSSYGPYDYWGQGTQVTVSS”: the “polyreactivity (PSR sort gate)” value was “low polyreactivity”.

With “QVQLVESGGGLVQAGGSLRLSCAASGSIFGKYAMGWYRQAPGKERELVAAISDSGSITYYADSVKGRFTISRDNAKNTVYLQMNSLKPEDTAVYYCAAERYLLWGFEENYWGQGTQVTVSS”, the “polyreactivity (PSR sort gate)” value is given as “high polyreactivity”.

“QVQLVESGGGLVQAGGSLRLSCAASGSIFGKYAMGWYRQAPGKERELVAAISKRGGSTYYADSVKGRFTISRDNAKNTVYLQMNSLKPEDTAVYYCAATPVYSGPYDYWGQGTQVTVSS”: the “polyreactivity (PSR sort gate)” value was “high polyreactivity”.

As to “QVQLVESGGGLVQAGGSLRLSCAASGSIFGKYAMGWYRQAPGKERELVAAISRSGSRTFYADSVKGRFTISRDNAKNTVYLQMNSLKPEDTAVYYCNALSGDSYSYYGYDSWGQGTQVTVSS”, the “polyreactivity (PSR sort gate)” value is listed as “high polyreactivity”.

Regarding “QVQLVESGGGLVQAGGSLRLSCAASGSIFGLYAMGWYRQAPGKERDLVAVITYYVGTTYYADSVKGRFTISRDTAKNTVYLQMHSLKPEDTAVYYCAADLYWYYPWSAYYGEYDYWGQGTQVTVSS”, the “polyreactivity (PSR sort gate)” value is given as “low polyreactivity”.

Turning to “QVQLVESGGGLVQAGGSLRLSCAASGSIFGLYAMGWYRQAPGKERELVAAISTSSGRTYYADSVKGRFTISRDNAKNTVYLQMNSLKPEDTAVYYCAASGAWWSLHYAGDYWGQGTQVTVSS”, the “polyreactivity (PSR sort gate)” value is listed as “high polyreactivity”.

As to “QVQLVESGGGLVQAGGSLRLSCAASGSIFGLYAMGWYRQAPGKERELVATISKSGVSTYYADSVKGRFTISRDNAKNTVYLQMNSLKPEDTAVYYCNADISRDKDFDYWGQGTQVTVSW”, the “polyreactivity (PSR sort gate)” value is on record as “low polyreactivity”.

For “QVQLVESGGGLVQAGGSLRLSCAASGSIFGNYAMGWYRQAPGKERELVAAITSSGGTYYADSVKGRFTISRDNAKNTVYLQMNSLKPEDTAVYYCAARYYSYRHQSVKYGYWGQGTQVTVSS”, the “polyreactivity (PSR sort gate)” value is “high polyreactivity”.

Turning to “QVQLVESGGGLVQAGGSLRLSCAASGSIFGPYAMGWYRQAPGKERELVAAITWTGGRTYYADSVKGRFTISRDNAKNTVYLQMNSLKPEDNAVYYCAADYSPSTWYLYYTLYYYWGQGTQVTVSS”, the “polyreactivity (PSR sort gate)” value is “low polyreactivity”.

For the sequence “QVQLVESGGGLVQAGGSLRLSCAASGSIFGPYAMGWYRQAPGKERYADSVKGRFTISRDNAKNTVYLQMNSLKPEDTAVYYCNADTSRWRYSQPIYDYWGQGTQVTVSS”, the “polyreactivity (PSR sort gate)” value is given as “low polyreactivity”.
